Results published in US20230416365A1 (Hoffmann-La Roche, published 2023).

What was measured:
[1] = target: T1, human FAP on 3T3-huFAP cells (clone 19) (human, UniProt Q12884 1-760); test: flow cytometry on 3T3-huFAP cells, median fluorescence intensity (axis MFI APC)
[2] = target: T1, human FAP on 3T3-huFAP cells (clone 19); test: flow cytometry on 3T3-huFAP cells, PE anti-human secondary antibody, median fluorescence intensity
[3] = target: T2, human CD28 on CHO cells (parental cell line CHO-k1 ATCC #CCL-61, modified to stably overexpress human CD28) (human, UniProt P10747 19-220); test: flow cytometry on CHOk1-CD28 cells
T2 construct: also called hu CD28; CHO-hCD28

[4] = target: T3, human CD19 on Nalm6 B cells (human, UniProt P15391 20-556); test: flow cytometry on Nalm6 B cells
T3 sequence: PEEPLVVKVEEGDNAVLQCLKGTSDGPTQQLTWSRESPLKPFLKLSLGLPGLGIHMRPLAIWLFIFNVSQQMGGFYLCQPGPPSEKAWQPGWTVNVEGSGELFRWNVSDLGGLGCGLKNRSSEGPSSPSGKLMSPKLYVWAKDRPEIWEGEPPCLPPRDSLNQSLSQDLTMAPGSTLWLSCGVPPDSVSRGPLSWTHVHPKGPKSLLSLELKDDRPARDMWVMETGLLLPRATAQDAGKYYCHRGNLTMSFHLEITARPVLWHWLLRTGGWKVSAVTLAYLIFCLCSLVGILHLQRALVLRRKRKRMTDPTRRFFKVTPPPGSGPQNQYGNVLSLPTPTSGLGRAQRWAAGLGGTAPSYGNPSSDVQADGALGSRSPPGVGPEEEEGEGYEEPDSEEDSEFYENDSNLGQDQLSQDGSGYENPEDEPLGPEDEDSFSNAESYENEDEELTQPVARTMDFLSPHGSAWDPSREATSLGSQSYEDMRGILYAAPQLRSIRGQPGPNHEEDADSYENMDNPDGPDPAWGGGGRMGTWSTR

B1: FAP(4B9)-CD28(SA) 1+1 format (Molecule C) (bispecific antibody, human IgG1, kappa, L234A L235A)
heavy 1: not shown
light 1: not shown
heavy 2: EIVLTQSPGTLSLSPGERATLSCRASQSVTSSYLAWYQQKPGQAPRLLINVGSRRATGIPDRFSGSGSGTDFTLTISRLEPEDFAVYYCQQGIMLPPTFGQGTKVEIKSSASTKGPSVFPLAPSSKSTSGGTAALGCLVKDYFPEPVTVSWNSGALTSGVHTFPAVLQSSGLYSLSSVVTVPSSSLGTQTYICNVNHKPSNTKVDKKVEPKSCDKTHTCPPCPAPEAAGGPSVFLFPPKPKDTLMISRTPEVTCVVVDVSHEDPEVKFNWYVDGVEVHNAKTKPREEQYNSTYRVVSVLTVLHQDWLNGKEYKCKVSNKALGAPIEKTISKAKGQPREPQVCTLPPSRDELTKNQVSLSCAVKGFYPSDIAVEWESNGQPENNYKTTPPVLDSDGSFFLVSKLTVDKSRWQQGNVFSCSVMHEALHNHYTQKSLSLSP
light 2: EVQLLESGGGLVQPGGSLRLSCAASGFTFSSYAMSWVRQAPGKGLEWVSAIIGSGASTYYADSVKGRFTISRDNSKNTLYLQMNSLRAEDTAVYYCAKGWFGGFNYWGQGTLVTVSSASVAAPSVFIFPPSDEQLKSGTASVVCLLNNFYPREAKVQWKVDNALQSGNSQESVTEQDSKDSTYSLSSTLTLSKADYEKHKVYACEVTHQGLSSPVTKSFNRGEC
notes: huIgG1 PG-LALA CrossFab, knob-into-hole; also called P1AD4492; parental
- EC50 (read off the curve) [1]: ~1 nM

B2: FAP-CD28 H2T (P1AE2021) (bispecific antibody, human IgG1, kappa, L234A L235A)
heavy chain CD28(SA) VLCH1 - FAP(4B9) VHCH1 EE - Fc knob PGLALA: not shown
CD28(SA) VHCL: QVQLVQSGAEVKKPGASVKVSCKASGYTFTSYYIHWVRQAPGQGLEWIGCIYPGNVNTNYNEKFKDRATLTVDTSISTAYMELSRLRSDDTAVYFCTRSHYGLDWNFDVWGQGTTVTVSSASVAAPSVFIFPPSDEQLKSGTASVVCLLNNFYPREAKVQWKVDNALQSGNSQESVTEQDSKDSTYSLSSTLTLSKADYEKHKVYACEVTHQGLSSPVTKSFNRGEC
FAP(4B9) VLCL RK: EIVLTQSPGTLSLSPGERATLSCRASQSVTSSYLAWYQQKPGQAPRLLINVGSRRATGIPDRFSGSGSGTDFTLTISRLEPEDFAVYYCQQGIMLPPTFGQGTKVEIKRTVAAPSVFIFPPSDRKLKSGTASVVCLLNNFYPREAKVQWKVDNALQSGNSQESVTEQDSKDSTYSLSSTLTLSKADYEKHKVYACEVTHQGLSSPVTKSFNRGEC
Fc hole PGLALA: DKTHTCPPCPAPEAAGGPSVFLFPPKPKDTLMISRTPEVTCVVVDVSHEDPEVKFNWYVDGVEVHNAKTKPREEQYNSTYRVVSVLTVLHQDWLNGKEYKCKVSNKALGAPIEKTISKAKGQPREPQVCTLPPSRDELTKNQVSLSCAVKGFYPSDIAVEWESNGQPENNYKTTPPVLDSDGSFFLVSKLTVDKSRWQQGNVFSCSVMHEALHNHYTQKSLSLSP
notes: head-to-tail 1+1 format; also called Molecule H; FAP(4B9)-CD28(SA) C-01
- EC50 (read off the curve) [1]: ~1 nM

B3: FAP-CD28CA 1+2 (P1AD8962) (bispecific antibody)
CD28(mAb 9.3) light chain: DIELTQSPASLAVSLGQRATISCRASESVEYYVTSLMQWYQQKPGQPPKLLIFAASNVESGVPARFSGSGSGTNFSLNIHPVDEDDVAMYFCQQSRKVPYTFGGGTKLEIKRTVAAPSVFIFPPSDEQLKSGTASVVCLLNNFYPREAKVQWKVDNALQSGNSQESVTEQDSKDSTYSLSSTLTLSKADYEKHKVYACEVTHQGLSSPVTKSFNRGEC
heavy chain CD28(mAb 9.3) VHCH - Fc knob - FAP(4B9) VH: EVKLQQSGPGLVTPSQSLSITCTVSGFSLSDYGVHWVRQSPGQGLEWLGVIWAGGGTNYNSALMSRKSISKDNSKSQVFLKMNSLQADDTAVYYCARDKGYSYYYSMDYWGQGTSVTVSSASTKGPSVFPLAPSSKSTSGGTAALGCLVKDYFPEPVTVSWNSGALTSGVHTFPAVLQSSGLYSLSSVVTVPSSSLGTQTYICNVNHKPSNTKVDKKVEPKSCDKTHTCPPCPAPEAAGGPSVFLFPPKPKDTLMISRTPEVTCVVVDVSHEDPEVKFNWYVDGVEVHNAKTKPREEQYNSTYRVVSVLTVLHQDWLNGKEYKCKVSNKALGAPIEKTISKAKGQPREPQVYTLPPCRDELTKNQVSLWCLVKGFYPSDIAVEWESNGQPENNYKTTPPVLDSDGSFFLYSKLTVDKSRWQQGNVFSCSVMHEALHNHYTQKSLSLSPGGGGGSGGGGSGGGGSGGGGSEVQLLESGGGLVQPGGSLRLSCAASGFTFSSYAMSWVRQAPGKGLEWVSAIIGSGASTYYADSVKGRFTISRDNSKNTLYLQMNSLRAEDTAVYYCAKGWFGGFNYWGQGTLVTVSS
heavy chain CD28(mAb 9.3) VHCH - Fc hole - FAP(4B9) VL: EVKLQQSGPGLVTPSQSLSITCTVSGFSLSDYGVHWVRQSPGQGLEWLGVIWAGGGTNYNSALMSRKSISKDNSKSQVFLKMNSLQADDTAVYYCARDKGYSYYYSMDYWGQGTSVTVSSASTKGPSVFPLAPSSKSTSGGTAALGCLVKDYFPEPVTVSWNSGALTSGVHTFPAVLQSSGLYSLSSVVTVPSSSLGTQTYICNVNHKPSNTKVDKKVEPKSCDKTHTCPPCPAPEAAGGPSVFLFPPKPKDTLMISRTPEVTCVVVDVSHEDPEVKFNWYVDGVEVHNAKTKPREEQYNSTYRVVSVLTVLHQDWLNGKEYKCKVSNKALGAPIEKTISKAKGQPREPQVCTLPPSRDELTKNQVSLSCAVKGFYPSDIAVEWESNGQPENNYKTTPPVLDSDGSFFLVSKLTVDKSRWQQGNVFSCSVMHEALHNHYTQKSLSLSPGGGGGSGGGGSGGGGSGGGGSEIVLTQSPGTLSLSPGERATLSCRASQSVTSSYLAWYQQKPGQAPRLLINVGSRRATGIPDRFSGSGSGTDFTLTISRLEPEDFAVYYCQQGIMLPPTFGQGTKVEIK
notes: also called Molecule Q; FAP(4B9)-CD28(mAb9.3) 1+2
- binding result [2]: binds

B4: FAP-CD28CA 2+2 (P1AD8968) (bispecific antibody)
heavy chain CD28(mAb 9.3) VHCH EE - Fc PGLALA - FAP(4B9) VHCL: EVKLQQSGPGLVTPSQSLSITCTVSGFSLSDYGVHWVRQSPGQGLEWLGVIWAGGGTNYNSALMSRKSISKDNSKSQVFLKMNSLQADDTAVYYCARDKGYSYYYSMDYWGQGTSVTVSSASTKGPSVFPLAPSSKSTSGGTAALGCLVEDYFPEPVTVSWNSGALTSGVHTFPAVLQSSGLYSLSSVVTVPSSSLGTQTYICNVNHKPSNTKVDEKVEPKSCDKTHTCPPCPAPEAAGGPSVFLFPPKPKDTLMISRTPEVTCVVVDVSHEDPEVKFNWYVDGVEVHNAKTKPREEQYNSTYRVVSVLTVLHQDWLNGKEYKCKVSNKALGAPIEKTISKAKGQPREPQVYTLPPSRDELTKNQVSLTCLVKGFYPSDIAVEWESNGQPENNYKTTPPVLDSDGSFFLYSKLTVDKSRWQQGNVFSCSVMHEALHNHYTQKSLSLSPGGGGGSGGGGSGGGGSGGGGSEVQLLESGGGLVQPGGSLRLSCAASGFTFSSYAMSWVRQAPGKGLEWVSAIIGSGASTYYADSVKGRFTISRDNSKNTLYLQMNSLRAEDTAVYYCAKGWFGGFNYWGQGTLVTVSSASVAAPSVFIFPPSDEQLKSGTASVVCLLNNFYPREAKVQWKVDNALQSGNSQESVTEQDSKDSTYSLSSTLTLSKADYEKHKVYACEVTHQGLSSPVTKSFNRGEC
CD28(mAb 9.3) light chain VLCL RK: DIELTQSPASLAVSLGQRATISCRASESVEYYVTSLMQWYQQKPGQPPKLLIFAASNVESGVPARFSGSGSGTNFSLNIHPVDEDDVAMYFCQQSRKVPYTFGGGTKLEIKRTVAAPSVFIFPPSDRKLKSGTASVVCLLNNFYPREAKVQWKVDNALQSGNSQESVTEQDSKDSTYSLSSTLTLSKADYEKHKVYACEVTHQGLSSPVTKSFNRGEC
FAP(4B9) VLCH1: EIVLTQSPGTLSLSPGERATLSCRASQSVTSSYLAWYQQKPGQAPRLLINVGSRRATGIPDRFSGSGSGTDFTLTISRLEPEDFAVYYCQQGIMLPPTFGQGTKVEIKSSASTKGPSVFPLAPSSKSTSGGTAALGCLVKDYFPEPVTVSWNSGALTSGVHTFPAVLQSSGLYSLSSVVTVPSSSLGTQTYICNVNHKPSNTKVDKKVEPKSC
notes: also called Molecule R; FAP(4B9)-CD28(mAb9.3) 2+2
- EC50 (read off the curve) [2]: ~1 nM

B5: CD19 (8B8-2B11)-CD28 (SA_v27) 1+1 (Molecule E of Example 18; 18E) (bispecific antibody, human IgG1, kappa, L234A L235A)
heavy 1: not shown
light 1: not shown
heavy 2: DIVMTQTPLSLSVTPGQPASISCKSSQSLETSTGTTYLNWYLQKPGQSPQLLIYRVSKRFSGVPDRFSGSGSGTDFTLKISRVEAEDVGVYYCLQLLEDPYTFGQGTKLEIKSSASTKGPSVFPLAPSSKSTSGGTAALGCLVKDYFPEPVTVSWNSGALTSGVHTFPAVLQSSGLYSLSSVVTVPSSSLGTQTYICNVNHKPSNTKVDKKVEPKSCDKTHTCPPCPAPEAAGGPSVFLFPPKPKDTLMISRTPEVTCVVVDVSHEDPEVKFNWYVDGVEVHNAKTKPREEQYNSTYRVVSVLTVLHQDWLNGKEYKCKVSNKALGAPIEKTISKAKGQPREPQVCTLPPSRDELTKNQVSLSCAVKGFYPSDIAVEWESNGQPENNYKTTPPVLDSDGSFFLVSKLTVDKSRWQQGNVFSCSVMHEALHNHYTQKSLSLSP
light 2: QVQLVQSGAEVKKPGASVKVSCKASGYTFTDYIMHWVRQAPGQGLEWMGYINPYNDGSKYTEKFQGRVTMTSDTSISTAYMELSRLRSDDTAVYYCARGTYYYGPQLFDYWGQGTTVTVSSASVAAPSVFIFPPSDEQLKSGTASVVCLLNNFYPREAKVQWKVDNALQSGNSQESVTEQDSKDSTYSLSSTLTLSKADYEKHKVYACEVTHQGLSSPVTKSFNRGEC
notes: huIgG1 PG-LALA CrossFab; also called P1AF0378; CD19-CD28 v27
- EC50 [3]: 10.8 nM
- EC50 [4]: 0.368 nM

B6: CD19 (8B8-2B11)-CD28 (SA_v29) 1+1 (Molecule 18A) (bispecific antibody, human IgG1, kappa, L234A L235A)
heavy 1: not shown
light 1: not shown
heavy 2: DIVMTQTPLSLSVTPGQPASISCKSSQSLETSTGTTYLNWYLQKPGQSPQLLIYRVSKRFSGVPDRFSGSGSGTDFTLKISRVEAEDVGVYYCLQLLEDPYTFGQGTKLEIKSSASTKGPSVFPLAPSSKSTSGGTAALGCLVKDYFPEPVTVSWNSGALTSGVHTFPAVLQSSGLYSLSSVVTVPSSSLGTQTYICNVNHKPSNTKVDKKVEPKSCDKTHTCPPCPAPEAAGGPSVFLFPPKPKDTLMISRTPEVTCVVVDVSHEDPEVKFNWYVDGVEVHNAKTKPREEQYNSTYRVVSVLTVLHQDWLNGKEYKCKVSNKALGAPIEKTISKAKGQPREPQVCTLPPSRDELTKNQVSLSCAVKGFYPSDIAVEWESNGQPENNYKTTPPVLDSDGSFFLVSKLTVDKSRWQQGNVFSCSVMHEALHNHYTQKSLSLSP
light 2: QVQLVQSGAEVKKPGASVKVSCKASGYTFTDYIMHWVRQAPGQGLEWMGYINPYNDGSKYTEKFQGRVTMTSDTSISTAYMELSRLRSDDTAVYYCARGTYYYGPQLFDYWGQGTTVTVSSASVAAPSVFIFPPSDEQLKSGTASVVCLLNNFYPREAKVQWKVDNALQSGNSQESVTEQDSKDSTYSLSSTLTLSKADYEKHKVYACEVTHQGLSSPVTKSFNRGEC
notes: huIgG1 PG-LALA CrossFab; also called P1AE8002; CD19-CD28 v29
- EC50 [3]: 6.65 nM
- EC50 [4]: 0.274 nM

B7: FAP(4B9)-CD28(SA) 1+2 format (Molecule E) (bispecific antibody, human IgG1, kappa, L234A L235A)
heavy 1: not shown
heavy 2: QVQLVQSGAEVKKPGASVKVSCKASGYTFTSYYIHWVRQAPGQGLEWIGCIYPGNVNTNYNEKFKDRATLTVDTSISTAYMELSRLRSDDTAVYFCTRSHYGLDWNFDVWGQGTTVTVSSASTKGPSVFPLAPSSKSTSGGTAALGCLVKDYFPEPVTVSWNSGALTSGVHTFPAVLQSSGLYSLSSVVTVPSSSLGTQTYICNVNHKPSNTKVDKKVEPKSCDKTHTCPPCPAPEAAGGPSVFLFPPKPKDTLMISRTPEVTCVVVDVSHEDPEVKFNWYVDGVEVHNAKTKPREEQYNSTYRVVSVLTVLHQDWLNGKEYKCKVSNKALGAPIEKTISKAKGQPREPQVCTLPPSRDELTKNQVSLSCAVKGFYPSDIAVEWESNGQPENNYKTTPPVLDSDGSFFLVSKLTVDKSRWQQGNVFSCSVMHEALHNHYTQKSLSLSPGGGGGSGGGGSGGGGSGGGGSEIVLTQSPGTLSLSPGERATLSCRASQSVTSSYLAWYQQKPGQAPRLLINVGSRRATGIPDRFSGSGSGTDFTLTISRLEPEDFAVYYCQQGIMLPPTFGQGTKVEIK
light: not shown
notes: bivalent anti-CD28, monovalent anti-FAP (VH and VL fused to the C-termini of the Fc chains); also called P1AD9011; FAP-CD28 1+2 SA
- EC50 (read off the curve) [1]: ~4 nM

B8: FAP-CD28 CTF (P1AE2236) (bispecific antibody, human IgG1, kappa, L234A L235A)
CD28(SA) light chain: not shown
heavy chain CD28(SA) VHCH - Fc hole - FAP(4B9) VL: QVQLVQSGAEVKKPGASVKVSCKASGYTFTSYYIHWVRQAPGQGLEWIGCIYPGNVNTNYNEKFKDRATLTVDTSISTAYMELSRLRSDDTAVYFCTRSHYGLDWNFDVWGQGTTVTVSSASTKGPSVFPLAPSSKSTSGGTAALGCLVKDYFPEPVTVSWNSGALTSGVHTFPAVLQSSGLYSLSSVVTVPSSSLGTQTYICNVNHKPSNTKVDKKVEPKSCDKTHTCPPCPAPEAAGGPSVFLFPPKPKDTLMISRTPEVTCVVVDVSHEDPEVKFNWYVDGVEVHNAKTKPREEQYNSTYRVVSVLTVLHQDWLNGKEYKCKVSNKALGAPIEKTISKAKGQPREPQVCTLPPSRDELTKNQVSLSCAVKGFYPSDIAVEWESNGQPENNYKTTPPVLDSDGSFFLVSKLTVDKSRWQQGNVFSCSVMHEALHNHYTQKSLSLSPGGGGGSGGGGSGGGGSGGGGSEIVLTQSPGTLSLSPGERATLSCRASQSVTSSYLAWYQQKPGQAPRLLINVGSRRATGIPDRFSGSGSGTDFTLTISRLEPEDFAVYYCQQGIMLPPTFGQGTKVEIK
Fc knob - FAP(4B9) VH: not shown
notes: also called Molecule I; FAP(4B9)-CD28(SA) C-04
- EC50 (read off the curve) [1]: ~2 nM
